Assay results taken from the supplement of paper PMC9170038.

System: MS2 coat protein
Experiment: apparent KD of MS2 coat protein; designed switch direction (-1 OFF switch, 1 ON switch): -1; higher = weaker reporter binding
Summary of the method: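 Three titration conditions were used: no input, 200 uM small-molecule ligand, and an oligonucleotide input. In each, SNAP-549-labelled MS2 coat protein was raised from 0.7 or 1.5 nM, doubling, to 3 µM over designed RNA switches transcribed on Illumina chips by stalled E. coli RNA polymerase. Curve fits of normalised cluster fluorescence gave values whose per-design median over clusters is the apparent KD.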

[1] = input ligand: microRNA oligo, concentration not stated
[2] = Eterna round: R95, input ligand: microRNA oligo, concentration not stated
[3] = Eterna round: R95, input ligand: FMN 200 uM
[4] = Eterna round: R95, input ligand: none

Sequence	apparent KD of MS2 coat protein (input ligand: FMN 200 uM)	apparent KD of MS2 coat protein [1]	apparent KD of MS2 coat protein (input ligand: none)	apparent KD of MS2 coat protein [2]	apparent KD of MS2 coat protein [3]	apparent KD of MS2 coat protein [4]
UUCCUCACUUCUUUGUCUCACAUGAGGAUCACCCAUGUAAUAUAGGAUAUGCUUAGUAUUUCUAUGCAGAAGGAUAUUAGUUUU [JR_ExcNG3_Sub086] (Eterna round: R96, puzzle: Exclusion NG 3)	111 nM	27.3 nM	32.3 nM			
UUCCUCUUUGUGAGGAUAUCGUCCGUUUUUUGUUACGAGAAGGCACAUGAGGAUCACCCAUGUUUUUUGUUUUU [JR_BMOE4_Sub076] (puzzle: Brourd's mod of Exclusion 4)				21.4 nM		
UUCGGCGCAGGAUAUACAGUUCUGUGUUGAAUCGGCGCGGGACAUGAGGAUCACCCAUGUAGAAGGGUGUUGGG [-26.9, -23.2 kcal, A 22%] (Eterna round: R97, puzzle: Exclusion 2)	220 nM		538 nM			
UUCGUGCAGCUUUGCUGUACGCGUACAUGAGGAUCACCCAUGUAGGAUAUGGUAGGCUUUGCUUACUAGAAGGAUAUUGUGAUC [JL EXNG3 1.32] (Eterna round: R96, puzzle: Exclusion NG 3)	256 nM	80.9 nM	123 nM			
UUCGUGCUGCUUUGCUGUACGAGUACAUGAGGAUCACCCAUGUAGGAUAUGGACAUGAGGAUCACCCAGAAGGAUAUGUGUUGC [salish99_ExNG3_r04_508] (Eterna round: R96, puzzle: Exclusion NG 3)		87.5 nM				
UUCGUGCUGCUUUGCUGUACGAGUACAUGAGGAUCACCCAUGUAGGAUAUGGUUCGCUUUGCGUGCUAGAAGGAUAUGUGUUGC [salish99_ExNG3_r04_507] (Eterna round: R96, puzzle: Exclusion NG 3)	26.2 nM	17.8 nM	26 nM			
UUCGUGUAAGGAUAUACGACUCAUCCCAAUGGGACGAGCACGUAGAAGGUACAUGAGGAUCACCCAUGUGCUCC [Eddianle] (Eterna round: R96, puzzle: Exclusion 4)	284 nM	33.3 nM	39.9 nM			
UUCUUGCGCGUGAGGAUAUGCUGAUCCCAGGAUUAGCAGAAGGCACAUGAGGAUCACCCAUGUCCAACUUGUCU [LRO-BmodExc4-15- Bluer = mod of Colors by Tatyana Zabanova] (Eterna round: R97, puzzle: Brourd's mod of Exclusion 4)	51.4 nM		38.6 nM			
UUGAAAGGUGUAGGAUAUGUAUGAGGAUCACCCAUUAAUAAAUUUUAACCACGAGGAUCACCCGUGUAGAAGGACACCUUUCAA [pwkr exNG2 2xF5 1xFMN.18] (Eterna round: R96, puzzle: Exclusion NG 2)	36.9 nM	18 nM	31.8 nM			
UUGAACAUAGGAUAUAGUUGUUUGUACAUGAGGAUCACCCAUGUUAUGUAUGUUUUGUUUCUAGAAGGAUGUUGAU [JR_E5_Sub002] (puzzle: Exclusion 5)				32.5 nM		
UUGACGUCGUCAGGAUAUAGUUUUAAUGUCAUGCGUAUGUUCUUACAUGAGGAUCACCCAUGUCGCUAGAAGGGACUAAAGAUU [JR_ExcNG2_Sub011] (Eterna round: R96, puzzle: Exclusion NG 2)	27.6 nM	23.5 nM	34.7 nM			
UUGAUGUCAUCAGGAUAUAGUAUUUAAGACAUAUCUUCUUUCAAACAUGAGGAUCACCCAUGUCGCUAGAAGGGAUGAUUGAUU [JR_ExcNG2_Sub084] (Eterna round: R96, puzzle: Exclusion NG 2)		11.9 nM				
UUGAUGUGAGGAUAUAUAUGGUUGUUUUUUUAUUUUUUAUUACUUGAGGAUCACCCAAGUAGAAGGCGCUACGU [JR_Ex2_Sub068] (Eterna round: R97, puzzle: Exclusion 2)	25.5 nM		29.5 nM			
UUGCAGUCGUCAGGAUAUAGUAUUACGGCCUUUCAUUUCUUCAUACAUGAGGAUCACCCAUGUCGCUAGAAGGGAUUAUCGCUU [salish99_ExNG2_r04_107] (Eterna round: R96, puzzle: Exclusion NG 2)	16.4 nM	14.6 nM	20.6 nM			
UUGGUUGUGGUAGGAUAUCCGUUGGAAACUGUUGGAGAAGGACCACAGUCACUGGGUCCUUGUUUGGUGGAGUGGAAGAACCAU [pwkr exNG1 F6.16] (Eterna round: R96, puzzle: Exclusion NG 1)	453 nM	294 nM	329 nM			
UUGUACCGGUGAGGAUAUUUUUAAUAGAACUUUAUGAUAUACAUGAGGAUCACCCAUGUUACUUUAAAGAAGGCAUCGGAUUAU [JL JR Sub091 mod 1] (Eterna round: R96, puzzle: Exclusion NG 2)		12.9 nM				
UUGUGCACGCUGCGAUCCUACAUGAGGAUCACCCAUGUGGUCUGGUGGCGUGGGUCACCGGACUUGGCUCGUCUUGG [salish99_S_TOV1_R5_076] (Eterna round: R97, puzzle: Sensor, turn-off variant 1)	126 nM		138 nM			

Sequence	apparent KD of MS2 coat protein (input ligand: FMN 200 uM)	apparent KD of MS2 coat protein [1]	apparent KD of MS2 coat protein (input ligand: none)	apparent KD of MS2 coat protein [2]	apparent KD of MS2 coat protein [3]	apparent KD of MS2 coat protein [4]
UUGUUACAUGAGGAUCACCCAUGUGAGGAUAUGGUUCAGUACUGUAAUGUAAAGUACUCCAGAAGGCACAUGUU [1st #28] (Eterna round: R97, puzzle: Exclusion 1)	693 nM		264 nM			
UUGUUAUAUGUAGGAUAUGCGUGUUGUUAUUAGGCAGAAGGACAUGAGGAUCACCCAUGUAUGUUGUUGUUAUAUAUUAUAUAU [Title] (Eterna round: R96, puzzle: Exclusion NG 1)	56.3 nM	28.3 nM	58.8 nM			
UUGUUCUGAGGAUAUACAUGAGGAUCACCCAUGUGUUUCAGCUAGGAGACUAGCGAAAGUAGAAGGCUGUACUC [salish99_ex3_r4_017] (Eterna round: R97, puzzle: Exclusion 3)	26.9 nM		24.9 nM			
UUUAAGGGAAUUAAGAUCACAUGAGGAUCACCCAUGUAUAUAUAGGAUAUCAGCUCGUUUAGAGCUGAGAAGGAUAUAUACAUA [ExNG3/6-A2] (Eterna round: R96, puzzle: Exclusion NG 3)	162 nM	83.8 nM	155 nM			
UUUAAGGUAAUUAAGAUCACAUGAGGAUCACCCAUGUAUAUAUAGGAUAUCAGCUCGAUUAGAGCUGAGAAGGAUAUAUACAUA [ExNG3/6-C1] (Eterna round: R96, puzzle: Exclusion NG 3)	66.1 nM	33.3 nM	142 nM			
UUUAAUUGUCACAUGGGUGACAUGAGGAUCACCCAUGUCACAAGCUUUUUGUUCGUCUUAUAAUUAACCCAUGUGAC [Stov1/12-B1] (Eterna round: R97, puzzle: Sensor, turn-off variant 1)	13.9 nM		13.1 nM			
UUUAAUUUAAUUAAGAUCACAUGAGGAUCACCCAUGUAUAUAUAGGAUAUCAGCUCGUGUAGAGCUGAGAAGGAUAUAUACAUA [ExNG3/4-A3] (Eterna round: R96, puzzle: Exclusion NG 3)	46 nM	35.9 nM	101 nM			
UUUAAUUUUUUUUUUUUACAAGCUUUUUGCUCGUCUUAUACAUGAGGAUCACCCAUGUAAAUGGAGGAUAAAUUAUC [JMF 29] (puzzle: Sensor v3, turn-off variant 2)				41.1 nM	22.4 nM	19.7 nM
UUUAAUUUUUUUUUUUUACAAGCUUUUUGCUCGUCUUAUACAUGAGGAUCACCCAUGUAAAUGGAGGGUAAAUUAUC [JMF 83] (puzzle: Sensor v3, turn-off variant 2)				32 nM	14.8 nM	11.1 nM
UUUAAUUUUUUUUUUUUACAAGCUUUUUGCUCGUCUUAUACAUGAGGAUCACCCAUGUAAGUGGAAGAUAAAUUAUC [JMF 10] (puzzle: Sensor v3, turn-off variant 2)				21.4 nM	18.2 nM	16.5 nM
UUUAAUUUUUUUUUUUUACAAGCUUUUUGCUCGUCUUAUACAUGAGGAUCACCCAUGUAGGUGGGAAGUAAAUUAUC [JMF 57] (puzzle: Sensor v3, turn-off variant 2)				97.5 nM	33 nM	37.5 nM
UUUAAUUUUUUUUUUUUACAAGCUUUUUGCUCGUCUUAUACAUGAGGAUCACCCAUGUGAAUGGAAGAUAAAUUAUC [JMF 8] (puzzle: Sensor v3, turn-off variant 2)				16.3 nM	17.8 nM	18.6 nM
UUUAAUUUUUUUUUUUUACAAGCUUUUUGCUCGUCUUAUACAUGAGGAUCACCCAUGUGAAUGGAGGGUAAAUUAUC [JMF 84] (puzzle: Sensor v3, turn-off variant 2)				42.5 nM	19.4 nM	16.8 nM
UUUAAUUUUUUUUUUUUACAAGCUUUUUGCUCGUCUUAUACAUGAGGAUCACCCAUGUGGGUGGGAAGUAAAUUAUC [JMF 56] (puzzle: Sensor v3, turn-off variant 2)				12.6 nM	59 nM	110 nM
UUUACAAGCUAUAGAUCCCACAUGAGGAUCACCCAUGUUGCUGCCGUGAGGUAGCUUUUAACUAUUGCUCGUCUUAU [JL TOV1 3.36] (Eterna round: R97, puzzle: Sensor, turn-off variant 1)	150 nM		181 nM			
UUUAGUUUAGGAUAUGUAGAUUUUAACAUGAGGAUCACCCAUGUAGAUCCUGAAUUAACUACAGAAGGAAACAUUU [Mod of Brourd 13 - Jieux - Exclusion 5] (Eterna round: R97, puzzle: Exclusion 5)	514 nM		123 nM			
